The values that follow come from patent US12258605B2, “Alkane oxidation by modified hydroxylases” (The California Institute of Technology, priority 2005, dated 2025).

The conditions of data set [1]: myristate; cited from earlier work.
Data set [2] in a line: Halomethane reactions (formaldehyde, PFBHA, GC-ECD): iodomethane. The data set is classed as biochemical. Particulars: formaldehyde formation. The protocol: Halomethane reactions: Reactions with chloromethane, bromomethane, and iodomethane were carried out in 1 mL-scale using halomethane-saturated buffer (100 mM phosphate pH 8.0) and 50-500 nM purified protein. 900 μL buffer were added with protein, incubated for 15 seconds, and then added with 100 μL NADPH regeneration solution (100 units/mL IDH, 70 mg/mL isocitrate, 1.5 mg/ml NADP+). Solution were sealed and stirred for 30 minutes at 25° C. To reduce background levels of formaldehyde to a minimum, buffers were prepared using HPLC-grade water and autoclaved twice prior to use. Formaldehyde concentration in the reaction solutions was determined through derivatization with o-(2,3,4,5,6-pentafluorobenzyl)hydroxylamine hydrochloride (PFBHA) and gas chromatography. […] Organic phase was removed, diluted 1/100 v/v, and analyzed on a Shimadzu GC-17A gas chromatograph. […] Quantification was carried out using a calibration curve and solutions at known concentration of formaldehyde. […]
Along with activity on propane, P450PMO also hydroxylates ethane (TTN˜2,500), despite ethane's higher C—H bond energy (101.0 kcal mol^−1 versus 98.6 kcal mol^−1 for propane). […] Reactions with purified P450 variants and the halomethanes were analyzed for formaldehyde formation (FIG. 42). […] Activity on chloromethane was detected at lower levels (0.5-1% of propane activity) and in fewer P450 variants. […]

B1: Wild-type BM-3: wild-type cytochrome P450 BM-3 from Bacillus megaterium, SEQ ID NO:1 (protein, listed as Bacillus megaterium)
chain: TIKEMPQPKTFGELKNLPLLNTDKPVQALMKIADELGEIFKFEAPGRVTRYLSSQRLIKEACDESRFDKNLSQALKFVRDFAGDGLFTSWTHEKNWKKAHNILLPSFSQQAMKGYHAMMVDIAVQLVQKWERLNADEHIEVPEDMTRLTLDTIGLCGFNYRFNSFYRDQPHPFITSMVRALDEAMNKLQRANPDDPAYDENKRQFQEDIKVMNDLVDKIIADRKASGEQSDDLLTHMLNGKDPETGEPLDDENIRYQIITFLIAGHETTSGLLSFALYFLVKNPHVLQKAAEEAARVLVDPVPSYKQVKQLKYVGMVLNEALRLWPTAPAFSLYAKEDTVLGGEYPLEKGDELMVLIPQLHRDKTIWGDDVEEFRPERFENPSAIPQHAFKPFGNGQRACIGQQFALHEATLVLGMMLKHFDFEDHTNYELDIKETLTLKPEGFVVKAKSKKIPLGGIPSPSTEQSAKKVRKKAENAHNTPLLVLYGSNMGTAEGTARDLADIAMSKGFAPQVATLDSHAGNLPREGAVLIVTASYNGHPPDNAKQFVDWLDQASADEVKGVRYSVFGCGDKNWATTYQKVPAFIDETLAAKGAENIADRGEADASDDFEGTYEEWREHMWSDVAAYFNLDIENSEDNKSTLSLQFVDSAADMPLAKMHGAFSTNVVASKELQQPGSARSTRHLEIELPKEASYQEGDHLGVIPRNYEGIVNRVTARFGLDASQQIRLEAEEEKLAHLPLAKTVSVEELLQYVELQDPVTRTQLRAMAAKTVCPPHKVELEALLEKQAYKEQVLAKRLTMLELLEKYPACEMKFSEFIALLPSIRPRYYSISSSPRVDEKQASITVSVVSGEAWSGYGEYKGIASNYLAELQEGDTITCFISTPQSEFTLPKDPETPLIMVGPGTGVAPFRGFVQARKQLKEQGQSLGEAHLYFGCRSPHEDYLYQEELENAQSEGIITLHTAFSRMPNQPKTYVQHVMEQDGKKLIELLDQGAHFYICGDGSQMAPAVEATLMKSYADVHQVSEADARLWLQQLEEKGRYAKDVWAG
Take B1: the Coupling efficiency in data set [1] was 88%.

B2: P450PMO: P450 BM-3 variant, SEQ ID NO:125; 7-7 plus G443A and D698G; propane monooxygenase (protein)
chain: TIKEMPQPKTFGELKNLPLLNTDKPVQALMKIADELGEIFKFEAPGCVTRYISSQRLIKEACDESRFDKNLSQELKFFRDFGGDGLFTSWTHEINWKKAHNILLPSFSQQAMKGYHAMMVDIAVQLVQKWERLNADEHIEVSEDMTRLTLDTIGLCGFNYRFNSFYRDQPHPFIISMVRALDEVMNKPQRANPDDPAYDENKRQCQEDIKVMNDLVDKIIADRKARGEQSDDLLTQMLNGKDPETGEPLDDGNISYQIITFLIAGHETTSGLLSFALYFLVKNPHVLQKVVEEAARVLVDPVPSYKQVKQLKYVGMVLNEALRLWPTFPAFSLYAKEDTVLGGEYPLEKGDEVMVLIPQLHRDKTVWGDDVEEFRPERFENPSAIPQHAFKPFGNGQRACIGQQFALHEATLVLGMMLKHFDFEDHTNYELDIKETLTLKPEAFVVKAKSKKIPLGGIPSPSTGQSAKKVRKKAENAHNTPLLVLYGSNMGTAEGTARDLADIAMSKGFAPQVATLDSHAGNLPREGAVLIVTASYNGHPPDNAKQFVDWLDQASADEVKGVRYSVFGCGDKNWATTYQKVPAFIDETLAAKGAENIADRGEADASDDFEGTYEEWREHMWSDVAAYFNLDIENSEDNKSTLSLQFVDSAADMPLAKMHGAFSTNVVASKELQQPGSARSTRHLEIELPKEASYQEGGHLGVIPRNYEGTVNRVTARFGLDASQQIRLEAEEEKLAHLPLAKTVSVEELLQYVELQDPVTRTQLRAMAAKTVCPPHKVELEALLEKQAYKEQVLAKRLTMLELLEKYPACEMKFSEFIALLPSIRPRYYSISSSPRVDEKQASITVSVVSGEAWSGYGEYKGIASNYLAELQEGDTITCFISTPQSEFTLPKDPETPLIMVGPGTGVAPFRGFVQARKQLKEQGQSLGEAHLYFGCRSPHEDYLYQEELENAQSEGIITLHTAFSRMPNQPKTYVQHVMEQDGKKLIELLDQGAHFYICGDGSQMAPAVEATLMKSYADVHQVSEADARLWLQQLEEKGRYAKDVWAG
modifications: Mutant P450PMO protein sequence
notes: 7-7 plus G443A and D698G; propane monooxygenase
On to B2, for which the iodomethane dehalogenase activity result in data set [2] was “could be detected”.
